# Values quoted from earlier work, collected in article PMC2833280.
# Tests used:
# Test in all cases: kinetics
# Lys443 [1] = molecular target: Lys443 (UniProt position 443, TVNRPKLGVHE); details: enzyme-substrate complexes (kcat)
# Glu380 = Glu380 (UniProt position 380, TRWTGEFATHG)
# Lys443 [2] = molecular target: Lys443 (UniProt position 443, IVWRKKIGIHE); details: enzyme-ATP complex and free CMPr (kcat/Km)
Substance,pKa (Lys443 [1]),pKa (Glu380; enzyme-ATP complex and free CMPr (kcat/Km)),pKa (Glu380; enzyme-substrate complexes (kcat)),pKa (Lys443 [2])
beta-Lactam synthetase (beta-LS) (Streptomyces clavuligerus (printed 'Streptomyces clavuligerous')),8.07 ± 0.05,–,–,–
"Carbapenam synthetase (CPS, CarA) (Pectobacterium carotovorum (printed 'Pectobacterium carotorova'; formerly Erwinia carotovora))",–,7.8 ± 0.1,7.4 ± 0.1,10.0 ± 0.1
